The values that follow come from patent publication US20240117061A1.

Test [1] has as its target recombinant cynomolgus monkey BCMA-huFc (cynomolgus monkey; human). Kind of test: ELISA, hybridoma supernatant, dilution 1:81, immobilized cynoBCMA-huFc. A general note: ELISA stands for enzyme-linked immunosorbent assay.
Test [2] shares this target. Kind of test: ELISA, hybridoma supernatant, dilution 1:2187, immobilized cynoBCMA-huFc.
Test [3] shares this target. The experiment in a line: ELISA, hybridoma supernatant, dilution 1:243, immobilized cynoBCMA-huFc.
Test [4] shares this target. Kind of test: ELISA, hybridoma supernatant, dilution 1:27, immobilized cynoBCMA-huFc.
For test [5] the target is unchanged. The experiment in a line: ELISA, hybridoma supernatant, dilution, immobilized cynoBCMA-huFc.
The target is the same in test [6]. Kind of test: ELISA, hybridoma supernatant, dilution 1:729, immobilized cynoBCMA-huFc.
For test [7] the target is unchanged. The experiment in a line: ELISA, hybridoma supernatant, stock solution, immobilized cynoBCMA-huFc.
Test [8] has the same target. Kind of test: ELISA, hybridoma supernatant, dilution 1:9, immobilized cynoBCMA-huFc.

Chain of recombinant cynomolgus monkey BCMA-huFc (cynomolgus monkey; human) (chain, as listed by the source limits assumed): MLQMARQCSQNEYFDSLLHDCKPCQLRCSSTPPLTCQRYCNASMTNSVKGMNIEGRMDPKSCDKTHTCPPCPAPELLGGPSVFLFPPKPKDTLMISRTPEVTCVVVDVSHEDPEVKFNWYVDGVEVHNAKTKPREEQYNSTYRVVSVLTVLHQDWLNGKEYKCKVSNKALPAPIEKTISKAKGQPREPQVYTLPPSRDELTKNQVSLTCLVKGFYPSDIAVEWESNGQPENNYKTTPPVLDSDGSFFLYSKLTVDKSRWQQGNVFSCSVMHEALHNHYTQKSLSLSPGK

B1: mouse monoclonal antibody 202E11H10E3 (antibody, V domains shown)
VH: QVQLQQSDAELVKPGTSVKISCKVSGYTFTDHTIHWMKQRPEQGLEWIGYIYPRNGNTKYNEKFKGKATLTADKSSSTAYMHLNSLTSEDSAVYFCARYDYDGYFDVWGTGTTVTVSS
VL: DVVMTQTPLSLPVSLGDQASISCRSSQSHVHSDGHTYLHWYLQKPGQSPELLIYKVSNRFSGVPDRFSGSGSGTDFTLKISRVEAEDLGVYFCSQNTHFPWTFGGGTKLEIK
As for B1, the ELISA result is 0.14 in test [1]; 0.12 in test [2]; 0.15 in test [3]; 0.15 in test [4]; 0.31 in test [5]; 0.13 in test [6]. In addition, the ELISA result came out at 0.75 in test [7] and 0.18 in test [8].
